The source of these data is paper PMC3458870 (PLoS ONE, 2012).

This data set deals with the molecule itself. As to the kind of experiment: SEC. In general terms: In gel filtration, larger molecules generally elute earlier.

B1: truncated form of human PAH including the catalytic domain, hPAH(Gly103-Gln428) (domain or fragment)
chain: GATVHELSRDKKKDTVPWFPRTIQELDRFANQILSYGAELDADHPGFKDPVYRARRKQFADIAYNYRHGQPIPRVEYMEEEKKTWGTVFKTLKSLYKTHACYEYNHIFPLLEKYCGFHEDNIPQLEDVSQFLQTCTGFRLRPVAGLLSSRDFLGGLAFRVFHCTQYIRHGSKPMYTPEPDICHELLGHVPLFSDRSFAQFSQEIGLASLGAPDEYIEKLATIYWFTVEFGLCKQGDSIKAYGAGLLSSFGELQYCLSEKPKLLPLELEKTAIQNYTVTEFQPLYYVAESFNDAKEKVRNFAATIPRPFSVRYDPYTQRIEVLDNTQ
For orientation: stoichiometry N means the number of molecules, sites or subunits per partner or assembly. As to B1, the “stoichiometry N” value turned out to be 2.
